The results in this text go back to the supplement of paper PMC10567573.

Sequences and labels used below:
B1: GFOD1 (parent)
chain: EEAEELAKEMSVPFYTSRIDEVLL
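Further: lentivirally expressed fusions sorted by FACS into six bins by GFP to DsRed ratio, PSI derived from sequencing read proportions per bin multiplied by bin number.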

The variants in this series derive from B1. Nature of the series: protein stability index of a GFP-peptide fusion (GPS, HEK-293T) (PSI 1-6); higher = more stable. The conditions noted are these: c terminus: a fixed tail appended.
For EEAEELAKEMSVPFYWSRIDEVLL [T16W], the protein stability index was found to be 2.32. Consider EEAEELAKEMSVPFYLSRIDEVLL [T16L], for which the protein stability index is 2.75. With EEAEELAKEMSVPFYGSRIDEVLL [T16G], the protein stability index is 3.78.

With EEAEELAKEMSVPFYSSRIDEVLL [T16S], the protein stability index is 3.27. As for EEAEELAKEMSVPFYNSRIDEVLL [T16N], the protein stability index came to 4.17. Turning to EEAEELAKEMSVPFYCSRIDEVLL [T16C], the protein stability index turned out to be 3.81. For EEAEELAKEMSVPFYQSRIDEVLL [T16Q], the protein stability index is 4.17.

As to EEAEELAKEMSVPFYASRIDEVLL [T16A], the protein stability index amounted to 4.

On to EEAEELAKEMSVPFYPSRIDEVLL [T16P], for which the protein stability index worked out at 3.65. As to EEAEELAKEMSVPFYRSRIDEVLL [T16R], the protein stability index was found to be 3.27. As for EEAEELAKEMSVPFYISRIDEVLL [T16I], the protein stability index amounted to 3.08. Consider EEAEELAKEMSVPFYDSRIDEVLL [T16D], for which the protein stability index is 4.33. For the variant EEAEELAKEMSVPFYFSRIDEVLL [T16F], the protein stability index came out at 2.33. As for EEAEELAKEMSVPFYHSRIDEVLL [T16H], the figure is 3.93; as for EEAEELAKEMSVPFYMSRIDEVLL [T16M], 3.03. The result for EEAEELAKEMSVPFYKSRIDEVLL [T16K] reads 3.7.

For EEAEELAKEMSVPFYVSRIDEVLL [T16V], the protein stability index was found to be 3.45.

As for EEAEELAKEMSVPFYYSRIDEVLL [T16Y], the protein stability index is 2.27.

With EEAEELAKYMSVPFYTSRIDEVLL [E9Y], the protein stability index was found to be 2.94. Consider EEAEELAKMMSVPFYTSRIDEVLL [E9M], for which the protein stability index amounted to 3.03. The result for EEAEELAKKMSVPFYTSRIDEVLL [E9K] reads 2.66; that for EEAEELAKHMSVPFYTSRIDEVLL [E9H], 3.2. With EEAEELAKSMSVPFYTSRIDEVLL [E9S], the protein stability index stood at 2.92.

For EEAEELAKFMSVPFYTSRIDEVLL [E9F], the protein stability index was 3.12. Consider EEAEELAKQMSVPFYTSRIDEVLL [E9Q], for which the protein stability index is 3.17. With EEAEELAKRMSVPFYTSRIDEVLL [E9R], the protein stability index was 2.7. For EEAEELAKIMSVPFYTSRIDEVLL [E9I], the protein stability index turned out to be 2.15. For EEAEELAKLMSVPFYTSRIDEVLL [E9L], the protein stability index was found to be 2.16. EEAEELAKDMSVPFYTSRIDEVLL [E9D]: the protein stability index came out at 3.93. As for EEAEELAKWMSVPFYTSRIDEVLL [E9W], the protein stability index worked out at 2.62.

Take EEAEELAKPMSVPFYTSRIDEVLL [E9P]: the protein stability index amounted to 3.01.

With EEAEELAKCMSVPFYTSRIDEVLL [E9C], the protein stability index was 2.55. The result for EEAEELAKNMSVPFYTSRIDEVLL [E9N] reads 3.71; that for EEAEELAKVMSVPFYTSRIDEVLL [E9V], 3.1.

With EEAEELAKEMSVPFYTSAIDEVLL [R18A], the protein stability index was determined as 4.26.

With EEAEELAKEMSVPFYTSCIDEVLL [R18C], the protein stability index turned out to be 4.17.

Regarding EEAEELAKEMSVPFYTSDIDEVLL [R18D], the protein stability index worked out at 4.79.

As for EEAEELAKEMSNPFYTSRIDEVLL [V12N], the protein stability index was 4.56. EEAEELAKEMSLPFYTSRIDEVLL [V12L]: the protein stability index is 3.67. For the variant EEAEELAKEMSFPFYTSRIDEVLL [V12F], the protein stability index was 2.91.

Turning to EEAEELAKEMSHPFYTSRIDEVLL [V12H], the protein stability index is 3.03. Consider EEAEELAKEMSIPFYTSRIDEVLL [V12I], for which the protein stability index worked out at 3.6.

In the case of EEAEELAKEMSRPFYTSRIDEVLL [V12R], the protein stability index amounted to 3.89. On to EEAEELAKEMSSPFYTSRIDEVLL [V12S], for which the protein stability index is 4.46.

Regarding EEAEELAKEMSEPFYTSRIDEVLL [V12E], the protein stability index is 4.38. The result for EEAEELAKEMSQPFYTSRIDEVLL [V12Q] reads 3.91. On to EEAEELAKEMSTPFYTSRIDEVLL [V12T], for which the protein stability index was 4.2. On to EEAEELAKEMSAPFYTSRIDEVLL [V12A], for which the protein stability index turned out to be 3.2. As for EEAEELAKEMSGPFYTSRIDEVLL [V12G], the figure is 4.26. EEAEELAKEMSPPFYTSRIDEVLL [V12P]: the protein stability index is 4.14. As for EEAEELAKEMSYPFYTSRIDEVLL [V12Y], the figure is 4.22. As to EEAEELAKEMSDPFYTSRIDEVLL [V12D], the protein stability index came to 3.47. For the variant EEAEELAKEMSKPFYTSRIDEVLL [V12K], the protein stability index amounted to 3.99.

EEAEELAKEMSMPFYTSRIDEVLL [V12M]: the protein stability index stood at 4.31.

As for EEAEELAKEMSCPFYTSRIDEVLL [V12C], the protein stability index was found to be 3.71.

As to EEAEELAKEMSVPFYTHRIDEVLL [S17H], the protein stability index was determined as 3.71. On to EEAEELAKEMSVPFYTVRIDEVLL [S17V], for which the protein stability index is 3.12. On to EEAEELAKEMSVPFYTDRIDEVLL [S17D], for which the protein stability index stood at 4.98. As to EEAEELAKEMSVPFYTLRIDEVLL [S17L], the protein stability index stood at 2.09. As to EEAEELAKEMSVPFYTRRIDEVLL [S17R], the protein stability index amounted to 3.9.

On to EEAEELAKEMSVPFYTFRIDEVLL [S17F], for which the protein stability index is 1.79. EEAEELAKEMSVPFYTWRIDEVLL [S17W]: the protein stability index was 3. EEAEELAKEMSVPFYTTRIDEVLL [S17T]: the protein stability index amounted to 3.29.

EEAEELAKEMSVPFYTQRIDEVLL [S17Q]: the protein stability index was 3.27.

In the case of EEAEELAKEMSVPFYTYRIDEVLL [S17Y], the protein stability index was 2.94. With EEAEELAKEMSVPFYTERIDEVLL [S17E], the protein stability index turned out to be 4.27.

In the case of EEAEELAKEMSVPFYTARIDEVLL [S17A], the protein stability index came to 3.09. For EEAEELAKEMSVPFYTPRIDEVLL [S17P], the protein stability index is 4.43. For EEAEELAKEMSVPFYTKRIDEVLL [S17K], the protein stability index stood at 3.87. The result for EEAEELAKEMSVPFYTCRIDEVLL [S17C] reads 2.52; that for EEAEELAKEMSVPFYTNRIDEVLL [S17N], 4.04; that for EEAEELAKEMSVPFYTIRIDEVLL [S17I], 2.38. With EEAEELAKEDSVPFYTSRIDEVLL [M10D], the protein stability index was 4.7.

Regarding EEAEELAKEASVPFYTSRIDEVLL [M10A], the protein stability index is 4.41. As for EEAEELAKERSVPFYTSRIDEVLL [M10R], the protein stability index came out at 3.81. Take EEAEELAKEISVPFYTSRIDEVLL [M10I]: the protein stability index is 3.57. As for EEAEELAKETSVPFYTSRIDEVLL [M10T], the figure is 4.03; as for EEAEELAKEWSVPFYTSRIDEVLL [M10W], 4.5; as for EEAEELAKECSVPFYTSRIDEVLL [M10C], 4.53.

On to EEAEELAKEQSVPFYTSRIDEVLL [M10Q], for which the protein stability index came out at 4.26.

Consider EEAEELAKEYSVPFYTSRIDEVLL [M10Y], for which the protein stability index stood at 3.63. As for EEAEELAKEPSVPFYTSRIDEVLL [M10P], the figure is 4.5; as for EEAEELAKELSVPFYTSRIDEVLL [M10L], 2.62. With EEAEELAKEGSVPFYTSRIDEVLL [M10G], the protein stability index stood at 4.22. In the case of EEAEELAKESSVPFYTSRIDEVLL [M10S], the protein stability index was 4.12. As for EEAEELAKEVSVPFYTSRIDEVLL [M10V], the protein stability index was found to be 3.84. EEAEELAKEKSVPFYTSRIDEVLL [M10K]: the protein stability index was determined as 4.03. As to EEAEELAKEHSVPFYTSRIDEVLL [M10H], the protein stability index worked out at 4.53. Consider EEAEELAKEFSVPFYTSRIDEVLL [M10F], for which the protein stability index is 3.62. Take EEAEELAKEMSVHFYTSRIDEVLL [P13H]: the protein stability index was found to be 2.54. As for EEAEELAKEMSVTFYTSRIDEVLL [P13T], the protein stability index was 4.03. EEAEELAKEMSVWFYTSRIDEVLL [P13W]: the protein stability index is 1.97. As for EEAEELAKEMSVNFYTSRIDEVLL [P13N], the protein stability index was 3.78. As for EEAEELAKEMSVIFYTSRIDEVLL [P13I], the figure is 2.03.
